In PMC8617249, “Pharmacokinetic and pharmacodynamic similarity between SAR341402 insulin aspart and Japan-approved NovoRapid in healthy Japanese subjects” (Scientific Reports, 2021):

Experiments:
[1] = Plasma insulin aspart pharmacokinetics after a single subcutaneous dose (LC-MS/MS, noncompartmental); type: in vivo, human; details: single 0.3 U/kg s.c.; for INS-AUCinf, gMean (% CV) / INS-Cmax, gMean (% CV) / INS-AUClast, gMean (% CV): healthy Japanese males, fasting, plasma, LC-MS/MS, geometric mean (%CV); for INS-AUCinf, gMean (% CV): extrapolated to infinity; for INS-AUCinf, gMean (% CV) / INS-AUClast, gMean (% CV): N = 39/40; for INS-Cmax, gMean (% CV): N = 39 SAR-Asp, 40 NN-Asp-Jp; for INS-AUClast, gMean (% CV): time 0 to last quantifiable point
From the text: Following a screening visit 3–28 days before the first period, subjects enrolled into the study were admitted to the study clinic on the day before dosing. On the day of treatment, they were randomized (computer-generated by sponsor) to one of the two treatment sequences (see Supplementary Fig. S1). Subjects received a single subcutaneous dose of 0.3 U/kg SAR-Asp or NN-Asp-Jp in the first treatment period in randomized order followed by the other drug in the second treatment period. A wash-out period of 7–18 days separated each treatment period, with an end-of-study visit performed 4–8 days after the last dose.
Venous blood samples for pharmacokinetic analysis were collected before dosing of study drug, and then every 15 to 60 min during the 10 h clamp period. Samples were centrifuged within 20 min of collection. Plasma was collected and kept frozen (− 60 to − 80 °C) until analysis. Plasma concentrations of SAR-Asp and NN-Asp-Jp were analyzed by using a validated liquid chromatography-tandem mass spectrometry (LC–MS/MS) assay at Syneos Health (Quebec, Canada). Plasma concentrations within the validated concentration range (100–8000 pg/mL) were used to calculated pharmacokinetic parameters. Inter-assay precision (% coefficient of variation [CV]) and inter-assay accuracy (%bias) during validation were ≤ 15%.
The pharmacokinetic analysis dataset included subjects who completed at least one treatment period, had measurable insulin aspart concentrations and no major or critical deviations. Parameter estimates for SAR-Asp and NN-Asp-Jp were calculated by using standard noncompartmental methods with Phoenix WinNonlin 8.1 (Certara, Princeton, NJ). Area under the plasma insulin aspart concentration–time curve was calculated by the trapezoidal method from 0 to the time of the last concentration above the limit of quantification (INS-AUClast) and extrapolated to infinity (INS-AUCinf). Maximum plasma insulin aspart concentration observed (INS-Cmax) and INS-AUClast were the primary pharmacokinetic endpoints of the study. INS-AUCinf was a secondary endpoint.
(§1) Log-transformed pharmacokinetic and pharmacodynamic parameter estimates for SAR-Asp and NN-Asp-Jp were analyzed using a linear mixed-effects model with period, sequence, and treatment as fixed effects and subject as a random effect. For each parameter, the model-based difference in treatment means along with the confidence limits (90% for pharmacokinetic parameters, 95% for pharmacodynamic parameters) was back-transformed to provide estimates for the ratio of geometric means (gMean) between treatments (SAR-Asp/NN-Asp-Jp) and the corresponding confidence limits. Similarity for the pharmacokinetic parameters (INS-AUCinf and INS-Cmax) and bioequipotency for the pharmacodynamic parameters (GIR-AUC0–10 h and GIRmax) was concluded if the confidence limits (90% and 95% confidence intervals [CIs], respectively) of the treatment ratios were entirely within the 0.80–1.25 equivalence interval, in agreement with regulatory guidance[2],[18]. Data was analyzed using SAS v9.4 (SAS Institute, Cary, NC).

healthy Japanese males = experiment: 10 h automated euglycemic clamp, glucose infusion rate (glucodynamics); type: in vivo, human; details: single 0.3 U/kg s.c.; for GIR-AUC0-10 h, gMean (% CV) / GIRmax, gMean (% CV) / median GIR-tmax (time to reach GIRmax): healthy Japanese males, 10 h euglycemic clamp; for GIR-AUC0-10 h, gMean (% CV): body weight standardized GIR, N = 36 SAR-Asp, 38 NN-Asp-Jp; for GIR-AUC0-10 h, gMean (% CV) / GIRmax, gMean (% CV): geometric mean (%CV); for GIRmax, gMean (% CV): smoothed GIR (LOESS, 0.06), N = 36/38
Experimental: Each dosing visit included a 10 h automated euglycemic clamp procedure (STG-55, Artificial Endocrine Pancreas; Nikkiso Co, Ltd, Tokyo, Japan)[13]. The premise of performing the clamp procedure is that the blood glucose lowering effect of an administered insulin is antagonized by a variable infusion of glucose so that blood glucose is maintained (or clamped) at a target level[2],[14]. The metabolic profile of the investigated insulin is characterized by the glucose infusion rate (GIR) needed to keep blood glucose as close as possible at its predefined target level during the glucose clamp.
Following an overnight fast of at least 10 h, subjects were connected to the clamp device and their baseline blood glucose was determined (via glucose oxidase sensors that measure whole-blood glucose levels) before dosing of the study drug. For each subject, this was calculated as the mean of four glucose measurements at 30, 20, 10 and 1 min before administration of the study drugs. The clamp procedure was not performed in those subjects having a baseline glucose level less than 70 mg/dL ([…]). After dosing, onset of insulin action in each subject was when the blood glucose dropped below the target level of the clamp procedure, which was when it was 5 mg/dL (0.28 mmol/L) less than their fasting baseline value.
Blood glucose levels were measured in 1-min intervals, and using a predefined algorithm the clamp device automatically administered a variable infusion of 10% glucose in response to changes in glucose to maintain each subject at their target glucose level. The GIR, being the amount of external glucose needed to keep a subject’s blood glucose concentration at its target level, was continuously measured, and recorded by the STG-55 device. GIR profiles reflected the metabolic effects of SAR-Asp and NN-Asp-Jp over time.
The GIR over time was the primary pharmacodynamic parameter measured during the clamp procedure. The area under the body weight-standardized GIR time curve [GIR-AUC] measured insulin mediated glucose uptake into tissues. Subjects completing at least one clamp procedure with no major or critical deviations were included in the pharmacodynamic analysis dataset. Individual GIR values in each treatment group were standardized for body weight and subjected to a smoothing procedure using a locally weighted scatterplot smoothing (LOESS) function (SAS, PROC LOESS, factor 0.06). A smoothing factor of 6% was used based on the expected morphology of the GIR-profiles. Individual blood glucose levels were also subjected to a smoothing procedure. Fitted data were used to calculate the pharmacodynamic parameters, including the primary parameters of maximum smoothed body weight standardized GIR (GIRmax) and GIR-AUC over 10 h (GIR-AUC0–10 h), and the secondary parameter of time to reach GIRmax (GIR-tmax).
as §1

[2] = ratio of geometric means, linear mixed-effects model, equivalence range 0.80–1.25
[3] = ratio of geometric means, linear mixed-effects model, 10 h clamp, equivalence range 0.80–1.25

Row | Substance | INS-AUCinf, gMean (% CV) [1] | INS-Cmax, gMean (% CV) [1] | INS-AUClast, gMean (% CV) [1] | INS-AUCinf mean ratio SAR-Asp/NN-Asp-Jp, point estimate (90% CI) [1, 2] | INS-AUClast mean ratio SAR-Asp/NN-Asp-Jp, point estimate (90% CI) [1, 2] | INS-Cmax mean ratio SAR-Asp/NN-Asp-Jp, point estimate (90% CI) [1, 2] | GIR-AUC0-10 h, gMean (% CV) (healthy Japanese males) | GIRmax, gMean (% CV) (healthy Japanese males) | median GIR-tmax (time to reach GIRmax) (healthy Japanese males) [h] | GIR-AUC0-10 h mean ratio SAR-Asp/NN-Asp-Jp, point estimate (95% CI) (healthy Japanese males; [3]) | GIRmax mean ratio SAR-Asp/NN-Asp-Jp, point estimate (95% CI) (healthy Japanese males; [3])
1 | insulin aspart [SAR-Asp] | 15,400 (26) pg·h/mL | 6690 (32) pg/mL | 15,300 (27) pg·h/mL | 1.02 | 1.02 | 1.00 | 2054.12 (22.2) mg/kg | 8.70 (20.9) mg/(kg·min) | 2.82 | 1.00 | 1.01
2 | insulin aspart [NN-Asp-Jp] | 15,200 (27) pg·h/mL | 6690 (31) pg/mL | 15,100 (27) pg·h/mL |  |  |  | 2098.06 (23.5) mg/kg | 8.72 (21.0) mg/(kg·min) | 2.35 |  | 
